Consider one molecule from paper PMC5414174, “DNA replication licensing factor Cdc6 and Plk4 kinase antagonistically regulate centrosome duplication via Sas-6” (Nature Communications, 2017).

The target of the assay is T1, GST-tagged Plk4 (human, UniProt O00444 1-970).
T1 construct: human Plk4, cloned from a cDNA library by PCR into pGEX 4T-1; also called GST-Plk4; source: E. coli BL21, purified (glutathione Sepharose 4B); not shown: GST, N-terminal, kept
T1 sequence (looked up): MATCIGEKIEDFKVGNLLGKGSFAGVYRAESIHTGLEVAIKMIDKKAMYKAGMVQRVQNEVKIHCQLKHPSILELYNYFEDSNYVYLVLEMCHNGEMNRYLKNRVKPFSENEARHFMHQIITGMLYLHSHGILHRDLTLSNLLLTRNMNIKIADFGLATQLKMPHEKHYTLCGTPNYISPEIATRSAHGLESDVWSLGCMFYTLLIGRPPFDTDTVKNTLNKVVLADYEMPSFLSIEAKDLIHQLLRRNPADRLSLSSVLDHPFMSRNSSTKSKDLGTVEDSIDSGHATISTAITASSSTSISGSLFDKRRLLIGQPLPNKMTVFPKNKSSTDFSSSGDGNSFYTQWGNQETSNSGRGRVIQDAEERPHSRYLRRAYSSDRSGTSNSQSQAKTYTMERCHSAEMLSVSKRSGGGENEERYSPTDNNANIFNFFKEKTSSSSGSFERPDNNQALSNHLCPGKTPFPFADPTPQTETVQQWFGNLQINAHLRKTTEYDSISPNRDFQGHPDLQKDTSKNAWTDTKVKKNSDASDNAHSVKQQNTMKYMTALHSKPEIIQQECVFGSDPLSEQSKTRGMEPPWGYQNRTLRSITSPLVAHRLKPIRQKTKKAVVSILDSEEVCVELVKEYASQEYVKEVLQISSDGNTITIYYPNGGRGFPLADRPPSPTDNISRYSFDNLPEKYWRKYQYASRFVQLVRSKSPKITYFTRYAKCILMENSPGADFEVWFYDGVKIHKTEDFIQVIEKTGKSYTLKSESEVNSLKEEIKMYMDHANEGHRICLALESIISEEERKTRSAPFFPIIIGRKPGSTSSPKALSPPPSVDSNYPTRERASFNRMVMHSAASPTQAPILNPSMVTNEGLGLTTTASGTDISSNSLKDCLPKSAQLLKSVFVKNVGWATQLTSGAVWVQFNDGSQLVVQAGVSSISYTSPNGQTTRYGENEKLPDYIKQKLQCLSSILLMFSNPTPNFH
As to the kind of experiment: pull-down; Sepharose beads coupled with purified GST-Plk4 incubated with purified His-Cdc6; western blot with His antibody. Conditions: both partners purified. A general note: Immunoblotting shows a protein as a band on a membrane.

B1: His-tagged Cdc6 (purified) (natural protein, human, UniProt Q99741 1-560, looked up)
chain: MPQTRSQAQATISFPKRKLSRALNKAKNSSDAKLEPTNVQTVTCSPRVKALPLSPRKRLGDDNLCNTPHLPPCSPPKQGKKENGPPHSHTLKGRRLVFDNQLTIKSPSKRELAKVHQNKILSSVRKSQEITTNSEQRCPLKKESACVRLFKQEGTCYQQAKLVLNTAVPDRLPAREREMDVIRNFLREHICGKKAGSLYLSGAPGTGKTACLSRILQDLKKELKGFKTIMLNCMSLRTAQAVFPAIAQEICQEEVSRPAGKDMMRKLEKHMTAEKGPMIVLVLDEMDQLDSKGQDVLYTLFEWPWLSNSHLVLIGIANTLDLTDRILPRLQAREKCKPQLLNFPPYTRNQIVTILQDRLNQVSRDQVLDNAAVQFCARKVSAVSGDVRKALDVCRRAIEIVESDVKSQTILKPLSECKSPSEPLIPKRVGLIHISQVISEVDGNRMTLSQEGAQDSFPLQQKILVCSLMLLIRQLKIKEVTLGKLYEAYSKVCRKQQVAAVDQSECLSLSGLLEARGILGLKRNKETRLTKVFFKIEEKEIEHALKDKALIGNILATGLP
notes: human Cdc6; also called His-Cdc6; source: E. coli BL21, purified (His60 Ni Superflow resin)
As for B1, the binding result was “binds”.
